Experimental data as given in article doi:10.1101/2020.05.05.065912.
Where two headings read alike, the source gives them in different places.

Columns and labels:
[1] = molecular target: BRS-Myosin VI Tail-mRFP (UniProt Q9UM54); test: FRET or BRET
[2] = molecular target: BRS-Myosin VI Tail-mRFP (UniProt Q9UM54); test: FRET or BRET; remark: listed apart in the source

UniProt Q9UM54, sequence (Q9UM54 whole entry): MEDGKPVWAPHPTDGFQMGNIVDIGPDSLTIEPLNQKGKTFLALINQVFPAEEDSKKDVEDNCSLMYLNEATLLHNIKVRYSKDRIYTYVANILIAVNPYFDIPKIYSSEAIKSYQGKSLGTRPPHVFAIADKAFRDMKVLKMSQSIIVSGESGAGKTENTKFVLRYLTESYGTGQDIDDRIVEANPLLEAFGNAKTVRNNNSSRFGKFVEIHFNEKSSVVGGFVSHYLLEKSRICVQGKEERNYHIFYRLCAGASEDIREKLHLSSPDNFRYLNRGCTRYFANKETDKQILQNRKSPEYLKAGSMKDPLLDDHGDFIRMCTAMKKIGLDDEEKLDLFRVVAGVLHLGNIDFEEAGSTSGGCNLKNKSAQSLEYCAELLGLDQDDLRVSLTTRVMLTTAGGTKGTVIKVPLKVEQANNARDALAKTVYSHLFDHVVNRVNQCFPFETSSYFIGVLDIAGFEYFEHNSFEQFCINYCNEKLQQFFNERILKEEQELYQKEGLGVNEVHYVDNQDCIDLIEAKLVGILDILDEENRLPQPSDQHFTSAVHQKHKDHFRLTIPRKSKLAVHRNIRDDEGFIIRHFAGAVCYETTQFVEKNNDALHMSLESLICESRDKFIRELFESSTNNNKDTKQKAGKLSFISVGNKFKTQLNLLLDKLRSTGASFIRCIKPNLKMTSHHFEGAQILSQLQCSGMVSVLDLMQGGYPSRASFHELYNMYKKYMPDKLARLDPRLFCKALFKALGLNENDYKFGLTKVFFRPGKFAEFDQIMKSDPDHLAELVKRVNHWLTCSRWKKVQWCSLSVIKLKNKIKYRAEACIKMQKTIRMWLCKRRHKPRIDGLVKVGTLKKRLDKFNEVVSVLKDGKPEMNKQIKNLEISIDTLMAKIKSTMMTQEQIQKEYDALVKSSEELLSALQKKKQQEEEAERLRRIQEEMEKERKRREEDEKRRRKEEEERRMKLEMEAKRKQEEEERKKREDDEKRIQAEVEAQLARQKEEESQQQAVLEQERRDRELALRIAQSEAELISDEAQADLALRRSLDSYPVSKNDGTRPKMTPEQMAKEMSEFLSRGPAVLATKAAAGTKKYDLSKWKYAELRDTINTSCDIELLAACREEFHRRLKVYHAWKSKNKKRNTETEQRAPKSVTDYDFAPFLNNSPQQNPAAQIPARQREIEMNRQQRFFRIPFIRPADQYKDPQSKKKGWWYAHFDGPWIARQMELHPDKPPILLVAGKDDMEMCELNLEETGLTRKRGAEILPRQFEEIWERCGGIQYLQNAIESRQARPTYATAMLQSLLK

Kd [1]: 3.9 µM | Kd [2]: 1100 nM
B1: GFP-NDP52 (natural protein)
chain: MEETIKDPPTSAVLLDHCHFSQVIFNSVEKFYIPGGDVTCHYTFTQHFIPRRKDWIGIFRVGWKTTREYYTFMWVTLPIDLNNKSAKQQEVQFKAYYLPKDDEYYQFCYVDEDGVVRGASIPFQFRPENEEDILVVTTQGEVEEIEQHNKELCKENQELKDSCISLQKQNSDMQAELQKKQEELETLQSINKKLELKVKEQKDYWETELLQLKEQNQKMSSENEKMGIRVDQLQAQLSTQEKEMEKLVQGDQDKTEQLEQLKKENDHLFLSLTEQRKDQKKLEQTVEQMKQNETTAMKKQQELMDENFDLSKRLSENEIICNALQRQKERLEGENDLLKRENSRLLSYMGLDFNSLPYQVPTSDEGGARQNPGLAYGNPYSGIQESSSPSPLSIKKCPICKADDICDHTLEQQQMQPLCFNCPICDKIFPATEKQIFEDHVFCHSL
